{"source": "patent US20250011363A1", "about": "“OPTIMIZED SHORTENED PEPTIDE THAT BINDS TO ACETYLCHOLINE RECEPTOR, AND USE THEREOF” (SKINMED CO., LTD., priority 2021, published 2025)"}
{"target": "acetylcholine receptor", "experiment": "SPR, peptide at 10 uM, AchR immobilized", "units": {"Binding affinity": "RU"}}
{"binder": "KKATNK", "note": "[6mer-1-713]", "Binding affinity": 20}
{"binder": "KKEWKK", "note": "[6mer-1-681]", "Binding affinity": 32}
{"binder": "KRMKDR", "note": "[6mer-1-706]", "Binding affinity": 29}
{"binder": "RKHPKK", "note": "[6mer-1-674]", "Binding affinity": 32}
{"binder": "RRESWK", "note": "[6mer-1-685]", "Binding affinity": 14}
{"binder": "KKIWKR", "note": "[6mer-1-675]", "Binding affinity": 21}
{"binder": "RKNTHK", "note": "[6mer-1-692]", "Binding affinity": 22}
{"binder": "KKCCFR", "note": "[6mer-1-677]", "Binding affinity": 22}
{"binder": "RREWIK", "note": "[6mer-1-687]", "Binding affinity": 23}
{"binder": "RRPTNR", "note": "[6mer-1-697]", "Binding affinity": 13}
{"binder": "RRTTVR", "note": "[6mer-1-699]", "Binding affinity": 28}
{"binder": "KRDSPK", "note": "[6mer-1-667]", "Binding affinity": 32}
{"binder": "RRDNAR", "note": "[6mer-1-728]", "Binding affinity": 23}
{"binder": "KREAER", "note": "[6mer-1-690]", "Binding affinity": 21}
{"binder": "RKKMWK", "note": "[6mer-1-700]", "Binding affinity": 19}
{"binder": "KKDKPK", "note": "[6mer-1-725]", "Binding affinity": 32}
{"binder": "RRMPFK", "note": "[6mer-1-716]", "Binding affinity": 11}
{"binder": "KKDWNR", "note": "[6mer-1-670]", "Binding affinity": 11}
{"binder": "KKAANK", "note": "[6mer-1-666]", "Binding affinity": 18}
{"binder": "KRMMVK", "note": "[6mer-1-715]", "Binding affinity": 18}
{"binder": "KKKHEK", "note": "[6mer-1-708]", "Binding affinity": 14}
{"binder": "KRCPWR", "note": "[6mer-1-676]", "Binding affinity": 16}
{"binder": "RKIDMK", "note": "[6mer-1-693]", "Binding affinity": 22}
{"binder": "KKDAEK", "note": "[6mer-1-719]", "Binding affinity": 27}
{"binder": "RKYTKR", "note": "[6mer-1-694]", "Binding affinity": 27}
{"binder": "KKDPPR", "note": "[6mer-1-680]", "Binding affinity": 27}
{"binder": "KRPKNK", "note": "[6mer-1-724]", "Binding affinity": 19}
{"binder": "KKMHHR", "note": "[6mer-1-710]", "Binding affinity": 21}
{"binder": "RKPKAR", "note": "[6mer-1-691]", "Binding affinity": 31}
{"binder": "KRMAAK", "note": "[6mer-1-678]", "Binding affinity": 25}
{"binder": "RRMCER", "note": "[6mer-1-704]", "Binding affinity": 16}
{"binder": "RRATHR", "note": "[6mer-1-711]", "Binding affinity": 19}
{"binder": "KKHSMK", "note": "[6mer-1-726]", "Binding affinity": 33}
{"binder": "KRHEDR", "note": "[6mer-1-717]", "Binding affinity": 22}
{"binder": "KRFWPK", "note": "[6mer-1-707]", "Binding affinity": 26}
{"binder": "KKNMVR", "note": "[6mer-1-671]", "Binding affinity": 11}
{"binder": "KKYEVR", "note": "[6mer-1-686]", "Binding affinity": 25}
{"binder": "RKFKAR", "note": "[6mer-1-718]", "Binding affinity": 23}
{"binder": "KKHCNR", "note": "[6mer-1-696]", "Binding affinity": 18}
{"binder": "KKKSGK", "note": "[6mer-1-729]", "Binding affinity": 23}
{"binder": "KKPSNK", "note": "[6mer-1-712]", "Binding affinity": 24}
{"binder": "KRTEWR", "note": "[6mer-1-705]", "Binding affinity": 12}
{"binder": "RKATVK", "note": "[6mer-1-668]", "Binding affinity": 17}
{"binder": "KKKDIR", "note": "[6mer-1-682]", "Binding affinity": 30}
{"binder": "RRKTWR", "note": "[6mer-1-701]", "Binding affinity": 13}
{"binder": "KRADVK", "note": "[6mer-1-695]", "Binding affinity": 13}
{"binder": "KRDWVK", "note": "[6mer-1-702]", "Binding affinity": 31}
{"binder": "RKANGK", "note": "[6mer-1-727]", "Binding affinity": 29}
{"binder": "RRAMPK", "note": "[6mer-1-673]", "Binding affinity": 16}
{"binder": "KRFNHK", "note": "[6mer-1-698]", "Binding affinity": 27}
{"binder": "RKAMEK", "note": "[6mer-1-721]", "Binding affinity": 22}
{"binder": "RKMEIR", "note": "[6mer-1-672]", "Binding affinity": 17}
{"binder": "RRKHKR", "note": "[6mer-1-720]", "Binding affinity": 11}
{"binder": "KKAEER", "note": "[6mer-1-679]", "Binding affinity": 30}
{"binder": "KRTSFK", "note": "[6mer-1-714]", "Binding affinity": 25}
{"binder": "RKMPAK", "note": "[6mer-1-723]", "Binding affinity": 33}
{"binder": "KRNMAK", "note": "[6mer-1-669]", "Binding affinity": 23}
{"binder": "KKFKPK", "note": "[6mer-1-709]", "Binding affinity": 29}
{"binder": "RRNKVR", "note": "[6mer-1-722]", "Binding affinity": 12}
{"binder": "KRCPVR", "note": "[6mer-1-689]", "Binding affinity": 11}
{"binder": "KRDSMR", "note": "[6mer-1-683]", "Binding affinity": 16}
{"binder": "RKDEVR", "note": "[6mer-1-688]", "Binding affinity": 33}
{"binder": "KRNNDR", "note": "[6mer-1-684]", "Binding affinity": 20}
{"binder": "KKFHPR", "note": "[6mer-1-703]", "Binding affinity": 18}
{"target": "acetylcholine receptor", "experiment": "SPR, peptide at 10 uM on immobilised AchR", "units": {"Binding affinity (RU)": "RU"}}
{"binder": "KKSISR", "note": "[6mer-1-66]", "Binding affinity (RU)": 147}
{"binder": "RRWFTK", "note": "[6mer-1-62]", "Binding affinity (RU)": 133}
{"binder": "RKSVTR", "note": "[6mer-1-58]", "Binding affinity (RU)": 126}
{"binder": "KKSRRR", "note": "[6mer-1-65]", "Binding affinity (RU)": 121}
{"binder": "RRGIQR", "note": "[6mer-1-56]", "Binding affinity (RU)": 137}
{"binder": "KRLQCK", "note": "[6mer-1-59]", "Binding affinity (RU)": 145}
{"binder": "RKQYYK", "note": "[6mer-1-57]", "Binding affinity (RU)": 139}
{"binder": "KRSYCK", "note": "[6mer-1-61]", "Binding affinity (RU)": 121}
{"binder": "RKLQLK", "note": "[6mer-1-68]", "Binding affinity (RU)": 153}
{"binder": "RRSYTR", "note": "[6mer-1-67]", "Binding affinity (RU)": 135}
{"binder": "RKSIQK", "note": "[6mer-1-60]", "Binding affinity (RU)": 139}
{"binder": "RRRVCK", "note": "[6mer-1-54]", "Binding affinity (RU)": 144}
{"binder": "KKWVSR", "note": "[6mer-1-63]", "Binding affinity (RU)": 148}
{"binder": "KRSIYR", "note": "[6mer-1-55]", "Binding affinity (RU)": 133}
{"binder": "RKQFTK", "note": "[6mer-1-64]", "Binding affinity (RU)": 154}
